The values that follow come from PMC3539133.

For this data set, the target named is T1, dADAR dsRBD1 (UniProt Q9NII1 48-140).
T1 sequence: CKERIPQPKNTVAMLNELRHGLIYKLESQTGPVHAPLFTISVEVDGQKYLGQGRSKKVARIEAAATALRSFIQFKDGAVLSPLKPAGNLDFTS
Kind of data set: ITC. (Isothermal titration calorimetry measures the heat released or taken up as one component is titrated into another.)

Regarding GGUAGUAUAACAAUAUCCGUGUUGUUAUAGUACC (structured_RNA) [GluR-2 R/G upper stem-loop (GluR-2 USL) with GluR-3 tetraloop], the Kd turned out to be 400 ± 50 nM.

What is called Kd is the constant that tells how readily two partners part at equilibrium. Higher therefore signals a looser complex.
